Measurements as given in patent US20200317768A1 (published 2020).
Changes are numbered by the printed parent chain.

T1: human FcγRIIaR extracellular domain, C-terminal His-tag (human, UniProt P12318 34-217)
T1 construct: also called human FcγRIIa (type R); FcgRIIaR
T1 chain: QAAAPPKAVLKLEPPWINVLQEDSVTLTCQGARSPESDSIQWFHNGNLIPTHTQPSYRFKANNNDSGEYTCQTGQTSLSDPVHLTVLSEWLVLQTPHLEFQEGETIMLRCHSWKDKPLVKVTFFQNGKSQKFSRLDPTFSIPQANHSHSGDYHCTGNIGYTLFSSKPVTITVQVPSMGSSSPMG

T2: cynomolgus monkey FcγRIIa1 extracellular domain, C-terminal His-tag (cynomolgus monkey)
T2 construct: also called cyno FcγRIIa1; cynoFcgRIIa1
T2 chain: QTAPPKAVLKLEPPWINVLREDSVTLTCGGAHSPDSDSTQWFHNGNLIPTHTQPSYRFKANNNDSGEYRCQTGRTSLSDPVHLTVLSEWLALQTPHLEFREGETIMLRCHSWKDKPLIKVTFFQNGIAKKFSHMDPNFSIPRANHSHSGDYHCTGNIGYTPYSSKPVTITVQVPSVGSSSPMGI

T3: cynomolgus monkey FcγRIIb extracellular domain, C-terminal His-tag (cynomolgus monkey)
T3 construct: also called cyno FcγRIIb; cynoFcγRIIb
T3 chain: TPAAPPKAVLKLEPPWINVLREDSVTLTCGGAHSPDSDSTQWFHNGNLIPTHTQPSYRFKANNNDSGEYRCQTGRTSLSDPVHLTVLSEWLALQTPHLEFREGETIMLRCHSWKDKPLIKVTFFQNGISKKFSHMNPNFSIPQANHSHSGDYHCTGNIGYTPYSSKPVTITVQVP

T4: human FcγRIIb extracellular domain, C-terminal His-tag (human, UniProt P31994 43-217)
T4 construct: also called human FcgRIIb; FcgRIIb
T4 sequence: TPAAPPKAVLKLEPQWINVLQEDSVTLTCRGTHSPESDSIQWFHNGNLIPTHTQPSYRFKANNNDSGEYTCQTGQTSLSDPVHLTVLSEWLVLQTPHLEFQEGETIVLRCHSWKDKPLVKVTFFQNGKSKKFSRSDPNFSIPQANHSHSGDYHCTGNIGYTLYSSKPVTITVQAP

T5: cynomolgus monkey FcγRIIa3 extracellular domain, C-terminal His-tag (cynomolgus monkey)
T5 construct: also called cyno FcγRIIa3; cynoFcgRIIa3
T5 chain: T2 chain with P95T, T121A, A128S, H133P, D135N

T6: cynomolgus monkey FcγRIIIaS extracellular domain, C-terminal His-tag (cynomolgus monkey, UniProt Q8SPW2 21-206 at identity 1.00))
T6 construct: also called cyno FcγRIIIaS; cynoFcγRIIIaS
T6 chain: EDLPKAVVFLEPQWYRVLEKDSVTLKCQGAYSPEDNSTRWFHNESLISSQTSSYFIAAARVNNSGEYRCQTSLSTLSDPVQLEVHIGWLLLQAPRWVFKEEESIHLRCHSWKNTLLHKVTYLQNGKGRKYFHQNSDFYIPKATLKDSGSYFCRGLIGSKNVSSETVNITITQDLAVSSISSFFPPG

T7: cynomolgus monkey FcγRIIa2 extracellular domain, C-terminal His-tag (cynomolgus monkey)
T7 construct: also called cyno FcγRIIa2; cynoFcgRIIa2
T7 chain: T2 chain with P95T, T121A, I127K, A128S, K130N, D135N, R142Q

B1: M103205H795-MY050/M103202L889-SK1 (antibody, human IgG1, kappa)
heavy: QVTLKESGPVLVKPTETLTLTCTVSGIDLSHDDISWVRQAPGKGLEWVGIISYAGSTYYASWAKGRLTISKDTSKNQVVLTMTNMDPVDTATYYCARGVPAYSHGGDLWGQGTLVTVSSASTKGPSVFPLAPSSKSTSGGTAALGCLVKDYFPEPVTVSWNSGALTSGVHTFPAVLQSSGLYSLSSVVTVPSSSLGTQTYICNVNHKPSNTKVDKKVEPKSCDKTHTCPPCPAPELLNGPSVFLFPPKPKDTLMISRTPEVTCVVVDVAEEDPEVKFNWYVDGVEVHNAKTKPREEQYNSTYRVVSVLTVLHQDWLNGKEYKCKVSNKALPAPIEKTISKAKGQPREPQVYTLPPSREEMTKNQVSLTCLVKGFYPSDIAVEWESNGQPENNYKTTPPVLDSDGSFFLYSKLTVDKSRWQQGNVFSCSVMHEALHNHYTQKSLSLSP
light: DIVMTQSPATLSLSPGERATLSCTSSQSVYHANWLSWFQQKPGQPPKLLIYWASTLAYGVPSRFSGSGSGTDFTLTISSLQPEDAATYYCAGGYGGGRYAFGQGTKVEIKRTVAAPSVFIFPPSDEQLKSGTASVVCLLNNFYPREAKVQWKVDNALQSGNSQESVTEQDSKDSTYSLSSTLTLSKADYEKHKVYACEVTHQGLSSPVTKSFNRGEC
notes: Substitutions introduced into M103205H795-SG1; expressed with M103202L889-SK1 as light chain
B2: M103205H795-MY147/M103202L889-SK1 (antibody, human IgG1, kappa)
heavy: B1 heavy with L237W, A269S, P398M
light: B1 light
notes: as for B1
B3: M103205H795-MY051/M103202L889-SK1 (antibody, human IgG1, kappa)
heavy: B1 heavy with A269S, P273G
light: B1 light
notes: as for B1
B4: M103205H795-MY115/M103202L889-SK1 (antibody, human IgG1, kappa)
heavy: B1 heavy with P398M
light: B1 light
notes: as for B1
B5: M103205H795-MY105/M103202L889-SK1 (antibody, human IgG1, kappa)
heavy: B1 heavy with S241V, A269S, P398M
light: B1 light
notes: as for B1
B6: M103205H795-MY141/M103202L889-SK1 (antibody, human IgG1, kappa)
heavy: B1 heavy with E270H, P398M
light: B1 light
notes: as for B1
B7: M103205H795-MY117/M103202L889-SK1 (antibody, human IgG1, kappa)
heavy: B1 heavy with L236W, P398M
light: B1 light
notes: as for B1
B8: M103205H795-MY101/M103202L889-SK1 (antibody, human IgG1, kappa)
heavy: B1 heavy with A269S, A332K, P398M
light: B1 light
notes: also called MS1032LO06-MY101
B9: M103205H795-MY052/M103202L889-SK1 (antibody, human IgG1, kappa)
heavy: B1 heavy with A269S, P398M
light: B1 light
notes: as for B1

Biological target: T1, human FcγRIIaR extracellular domain, …
Experiment: SPR (Biacore); KD of SG1 / KD of variant;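 also: relative to parent M103205H795-SG1 carrying the SG1 human heavy chain constant region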
Description: (§1) The kinetic analysis of interactions between these antibodies and FcγR was carried out using BIACORE® T200 or BIACORE® 4000 (GE Healthcare). HBS-EP+ (GE Healthcare) was used as the running buffer, and the measurement temperature was set to 25° C. A chip produced by immobilizing Protein A. Protein A/G or mouse anti-human IgG kappa light chain (BD Biosciences) onto a Series S Sensor Chip CM4 or CM5 (GE Healthcare) by the amine-coupling method was used. […] After the measurement, the antibody captured on the chip was washed off by allowing reaction with 10 mM glycine-HCl, pH1.5 and 25 mM NaOH so that the chip was regenerated and used repeatedly. The sensorgrams obtained as measurement results were analyzed by the 1:1 Langmuir binding model using the BIACORE® Evaluation Software to calculate the binding rate constant ka (L/mol/s) and dissociation rate constant kd (l/s), and the dissociation constant KD (mol/L) was calculated from these values. […] Regarding such interactions, KD values were calculated using the following 1:1 binding model described in BIACORE® T100 Software Handbook BR1006-48 Edition AE.
(§2) The behavior of interacting molecules according to the 1:1 binding model on BIACORE® can be described by Equation 1: Req=C·R max/(KD+C)+RI, wherein, Req is a plot of steady-state binding levels to analyte concentration. C is concentration, RI is bulk refractive index contribution in the sample, and Rmax is analyte binding capacity of the surface. When this equation is rearranged, KD can be expressed as Equation 2: KD=C·Rmax/(Req−RI)−C. KD can be calculated by substituting the values of Rmax, RI, and C into Equation 1 or Equation 2. From the current measurement conditions, RI=0, C=2 μmol/L can be used.

| Binder | KD fold (SG1 = 1) [fold] |
| --- | --- |
| B1 | 0.7 |
| B2 | 1 |
| B3 | 0.4 |
| B4 | 1.7 |
| B5 | 0.8 |
| B6 | 0.7 |
| B7 | 1.1 |
| B8 | 1.3 |
| B9 | 0.5 |

Biological target: T2, cynomolgus monkey FcγRIIa1 …
Experiment: SPR (Biacore); KD of SG1 / KD of variant;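 also: relative to parent M103205H795-SG1 carrying the SG1 human heavy chain constant region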
Description: as §1, §2

| Binder | KD fold (SG1 = 1) [fold] |
| --- | --- |
| B1 | 0.7 |
| B2 | 1.5 |
| B3 | 0.7 |
| B4 | 1.4 |
| B5 | 2.7 |
| B6 | 1.5 |
| B7 | 1.2 |
| B8 | 2.9 |
| B9 | 2.8 |

Biological target: T3, cynomolgus monkey FcγRIIb extracellular …
Experiment: SPR (Biacore); KD of SG1 / KD of variant;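 also: relative to parent M103205H795-SG1 carrying the SG1 human heavy chain constant region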
Description: as §1, §2

| Binder | KD fold (SG1 = 1) [fold] |
| --- | --- |
| B1 | 3.3 |
| B2 | 3.9 |
| B3 | 0.9 |
| B4 | 2.3 |
| B5 | 4.6 |
| B6 | 1 |
| B7 | 1.8 |
| B8 | 5.1 |
| B9 | 8.9 |

Each binder was assayed against T8, human FcγRIIIaV extracellular domain, C-terminal His-tag (human, UniProt P08637 17-208) (assay: SPR (Biacore); KD of SG1 / KD of variant;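 also: relative to parent M103205H795-SG1 carrying the SG1 human heavy chain constant region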).
T8 construct: also called human FcgRIIIaV; FcgRIIIaV
Description: as §1, §2

T8 sequence (P08637 17-208 F176V): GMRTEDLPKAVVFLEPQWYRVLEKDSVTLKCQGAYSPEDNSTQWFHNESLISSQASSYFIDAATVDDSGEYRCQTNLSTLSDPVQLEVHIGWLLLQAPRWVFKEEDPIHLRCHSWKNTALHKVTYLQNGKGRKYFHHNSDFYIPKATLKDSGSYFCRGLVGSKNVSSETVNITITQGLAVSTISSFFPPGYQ

| Binder | KD fold (SG1 = 1) [fold] |
| --- | --- |
| B1 | 0.25 |
| B2 | 0.07 |
| B3 | 0.11 |
| B4 | 0.22 |
| B5 | 0.14 |
| B6 | 0.07 |
| B7 | 0.1 |
| B8 | 0.07 |
| B9 | 0.18 |

Each binder was assayed against T4, human FcγRIIb extracellular domain, … (assay: SPR (Biacore); KD of SG1 / KD of variant).
Description: as §1, §2

| Binder | KD fold (SG1 = 1) [fold] |
| --- | --- |
| B1 | 6.1 |
| B2 | 5.5 |
| B3 | 2.3 |
| B4 | 14.4 |
| B5 | 8.1 |
| B6 | 4.2 |
| B7 | 7.7 |
| B8 | 9.4 |
| B9 | 6.4 |

Biological target: T5, cynomolgus monkey FcγRIIa3 …
Experiment: SPR (Biacore); KD of SG1 / KD of variant
Description: as §1, §2

| Binder | KD fold (SG1 = 1) [fold] |
| --- | --- |
| B1 | 0.9 |
| B2 | 2.6 |
| B3 | 0.9 |
| B4 | 2.2 |
| B5 | 13.1 |
| B6 | 0.9 |
| B7 | 1.7 |
| B8 | 4.7 |
| B9 | 4.4 |

Biological target: T6, cynomolgus monkey FcγRIIIaS …
Experiment: SPR (Biacore); KD of SG1 / KD of variant
Description: as §1, §2

| Binder | KD fold (SG1 = 1) [fold] |
| --- | --- |
| B1 | 0.21 |
| B2 | 0.07 |
| B3 | 0.17 |
| B4 | 0.42 |
| B5 | 0.28 |
| B6 | 0.08 |
| B7 | 0.36 |
| B8 | 0.11 |
| B9 | 0.14 |

Biological target: T7, cynomolgus monkey FcγRIIa2 …
Experiment: SPR (Biacore); KD of SG1 / KD of variant
Description: as §1, §2

| Binder | KD fold (SG1 = 1) [fold] |
| --- | --- |
| B1 | 1.2 |
| B2 | 2.3 |
| B3 | 1.1 |
| B4 | 1.9 |
| B5 | 5.7 |
| B6 | 1.8 |
| B7 | 1.6 |
| B8 | 4.3 |
| B9 | 3.4 |
